Data set [1] deals with T1, TdIF1 (His-tagged) (UniProt Q9H147 1-329).
T1 sequence: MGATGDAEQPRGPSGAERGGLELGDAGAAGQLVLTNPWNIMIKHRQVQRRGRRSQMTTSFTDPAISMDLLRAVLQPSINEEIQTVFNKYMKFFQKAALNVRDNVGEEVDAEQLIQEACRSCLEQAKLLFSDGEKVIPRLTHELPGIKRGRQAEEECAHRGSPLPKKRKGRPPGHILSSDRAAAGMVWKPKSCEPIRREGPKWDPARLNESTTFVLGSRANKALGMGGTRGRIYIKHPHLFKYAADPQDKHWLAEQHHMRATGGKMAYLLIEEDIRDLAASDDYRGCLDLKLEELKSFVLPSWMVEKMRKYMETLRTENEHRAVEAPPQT
Briefly: EMSA; EMSA: 10 mM Tris-HCl pH 7.5, 100 mM NaCl, 1 mM EDTA, 1 mM DTT, 5% glycerol, 5 pmol probe, 100 ng protein in 10 ul, temperature not stated; GST pull-out: elution in 50 mM Tris-HCl pH 7.4, 5 mM beta-mercaptoethanol, 0.25% Tween 20, 10% glycerol, 150-350 mM NaCl. To be noted: protein: recombinant; tags: His; chain copies: 2; label: biotin. On the technique in general: Mobility shift assays separate free from complexed probe on a gel.

Data set [2] addresses T1, TdIF1 (His-tagged). Briefly: competition; EMSA vs biotin-dsAT; 5, 15, 45 pmol; complex decreased; EMSA: 10 mM Tris-HCl pH 7.5, 100 mM NaCl, 1 mM EDTA, 1 mM DTT, 5% glycerol, 5 pmol probe, 100 ng protein in 10 ul, temperature not stated; GST pull-out: elution in 50 mM Tris-HCl pH 7.4, 5 mM beta-mercaptoethanol, 0.25% Tween 20, 10% glycerol, 150-350 mM NaCl. The conditions noted are these: protein: recombinant; tags: His; chain copies: 2.

Data set [3] addresses T1, TdIF1 (His-tagged). Briefly: competition; EMSA vs biotin-dsAT; 5, 15, 45 pmol; slightly weaker than competitor I; EMSA: 10 mM Tris-HCl pH 7.5, 100 mM NaCl, 1 mM EDTA, 1 mM DTT, 5% glycerol, 5 pmol probe, 100 ng protein in 10 ul, temperature not stated; GST pull-out: elution in 50 mM Tris-HCl pH 7.4, 5 mM beta-mercaptoethanol, 0.25% Tween 20, 10% glycerol, 150-350 mM NaCl. The conditions noted are these: protein: recombinant; tags: His; chain copies: 2.

B1: biotin-dsAT probe (32-bp AT-rich dsDNA) (dsDNA)
DNA 1: CGGTATTAAAAATTACTGACAATATTAAATTAGATC
DNA 2: TAATTTAATATTGTCAGTAATTTTTAATACCG
Take B1: the binding result in the data set with TdIF1 (His-tagged) [1] is “binds”.

B2: Competitor I (SELEX clone 10; AT-tract + GNTGCATG) (dsDNA)
DNA 1: CGCCAAATAAAAGTTGCATGGTCG
DNA 2: CGACCATGCAACTTTTATTTGGCG
As for B2, the binding result in the data set with TdIF1 (His-tagged) [2] was “binds”.

B3: Competitor III (GNTGCATG only, AT-tract mutated) (dsDNA)
DNA 1: CGCCAAGCCTCAGTTGCATGGTCG
DNA 2: CGACCATGCAACTGAGGCTTGGCG
In the case of B3, the binding result with TdIF1 (His-tagged) [3] is given as “binds”.

The record behind these values is publication PMC3707907, “TdIF1 Recognizes a Specific DNA Sequence through Its Helix-Turn-Helix and AT-Hook Motifs to Regulate Gene Transcription”.
